These results are taken from patent publication US20130287781A1 (GlaxoSmithKline, published 2013).

Assay [1] deals with T1, peptide 7 (biotin-SGSG-VLPDIVMEAPLNSAVP) (human, N-terminal biotin).
T1 peptide: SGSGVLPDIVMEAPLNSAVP
Kind of assay: peptide ELISA: biotinylated 16-mer peptide on streptavidin, antibody at 5 ug/ml, kappa-chain peroxidase conjugate, Abs490.
Procedure: (§1) Streptavidin at 5 μg/ml in sterile water was coated onto Nunc immunosorp plates (100 μl per well) at 37° C. overnight. The plates were rinsed 3 times with PBS containing 0.05% Tween (PBST) then blocked with 3% BSA in PBST at 4° C. overnight. The plates were washed 3 times with PBST. Peptides were then added to the wells at a concentration of approximately 10 μg/ml (diluted in 3% BSA in PBST) and incubated at room temperature for 1 hour. The plates were washed 3 times with PBST then incubated for 1 hour with anti-NOGO antibodies diluted to 5 μg/ml in 3% BSA in PBST. […] The plates were washed 3 times with PBST and then incubated with 100 μl OPD peroxidase substrate (Sigma) per well for 10 minutes. The colour reaction was stopped by the addition of 50 μl 3 molar H₂SO₄. Absorbance at 490 nm was measured using a plate reader.

For assay [2], the target named is T2, peptide 6 (biotin-SGSG-TPSPVLPDIVMEAPLN) (human, N-terminal biotin).
T2 peptide: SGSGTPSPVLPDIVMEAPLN
Described as above.
Procedure: as §1

The target in assay [3] is T3, GST-human NOGO-A56 (human).
T3 construct: Expressed in E. coli BL21 from pGEX-6P1 and purified on glutathione-sepharose; the GST tag is part of the protein in the assays; also called GST-Nogo-A 5+6; GST Nogo-A 5 + 6
Kind of assay: direct ELISA on NOGO (GST-human NOGO-A56), CDR H3 variant of H6FL with L13FL, Abs490; coating concentration not given.

For assay [4], the target named is T3, GST-human NOGO-A56. Kind of assay: SPR (Biacore) off-rate on NOGO chip, panel of H6FL CDR H3 variants with L13FL.
Assay [5] deals with T3, GST-human NOGO-A56. Description: SPR (Biacore) off-rate ranking on GST-human NOGO-A56 chip, one experiment.
Procedure: (§2) GST-human NOGO-A56 was immobilised to a CM5 chip by primary amine coupling using the Biacore Wizard program designed for targeted immobilisation levels. The CM5 sensor surface was activated by passing a solution of 50 mM N-hydroxy-succinimide (NHS) and 200 mM N-ethyl-N′-dimethylaminopropyl carbonide (EDC). Then GST-human NOGO-A56 in sodium acetate buffer, pH5.0 or pH 4.5, was passed over the chip and immobilised. After immobilisation was complete any still activated esters were blocked by an injection of 1M ethanolamine hydrochloride, pH8.5.
The GST-human NOGO-A56 chip was prepared as for kinetic analysis. Cell supernatants where taken directly from transient transfections of CHO-K1 cells. These were passed directly over the sensor surface and the interaction measured. A mock transfected cell supernatant was used for double referencing to remove any artefacts due to the tissue culture media. All runs were referenced against a blanked sensor surface (one that had been activated and blocked as described earlier but had no addition of ligand). Analysis of binding was carried out using the BIAevaluation kinetic analysis software version 4.1.
Assay [6] concerns the target T3, GST-human NOGO-A56. Kind of assay: direct ELISA, human NOGO-A (GST-human NOGO-A56) coated at 1 ug/ml, Abs490.
The target in assay [7] is T3, GST-human NOGO-A56. Description: SPR (Biacore), GST-human NOGO-A56 amine-coupled to CM5, antibody flowed over, 25 C.
Procedure: as §2
(§3) The anti-NOGO mAbs were diluted down in HBS-EP (10 mM HEPES, pH 7.4, 150 mM NaCl, 3 mM EDTA, and 0.005% P-20 surfactant) for the BIAcore 3000 or HBS-EP+ (10 mM HEPES, pH 7.4, 150 mM NaCl, 3 mM EDTA, and 0.05% P-20 surfactant) in the case of the T100 and binding studies were carried out at range of defined antibody concentrations. All runs were referenced against a blanked sensor surface (one that had been activated and blocked as described earlier but had no addition of ligand). Analysis of binding was carried out using the BIAevaluation kinetic analysis software version 4.1 for the BIAcore 3000 and T100 kinetic analysis software version 1.0. […] Unless otherwise stated, the BIAcore experiments were performed at 25° C.
Assay [8] deals with T3, GST-human NOGO-A56. Description: direct ELISA, GST-human NOGO-A56 coated at 1.0 mcg/ml, purified antibody, OD490.
Assay [9] has as its target T3, GST-human NOGO-A56. Kind of assay: SPR (Biacore), GST-human NOGO-A56 amine-coupled to CM5, antibody flowed over, 25 C. This is another data set of the same source.
Procedure: as §2, §3
For assay [10], the target named is T3, GST-human NOGO-A56. Kind of assay: direct ELISA, GST-Nogo-A 5+6 coated at 1.0 mcg/ml, anti-human IgG-HRP, Abs490.
Procedure: (§4) Wells were rinsed once with TBS+0.05% Tween (TBST) then incubated with 2% BSA in TBST to block non-specific binding sites at room temperature for 1 hour. Antibodies were diluted in TBST+2% BSA to 10 μg/ml and ½ dilutions made from this. Antibodies were added to wells in duplicate and incubated at room temperature for 1 hour. […] The wells were washed three times with TBST and then incubated with 100 μl OPD peroxidase substrate (Sigma) per well for 10 minutes. The colour reaction was stopped by the addition of 25 μl concentrated H₂SO₄. Optical density at 490 nm was measured using a plate reader. Background values read from wells with no antibody were subtracted.
The target of assay [11] is T3, GST-human NOGO-A56. Kind of assay: SPR (Biacore T100), reverse format: antibody captured by Protein A, GST Nogo-A 5+6 0.125-8 nM flowed over; mean (SD in brackets).
Source text: Protein A was immobilised to approximately 4000RUs by primary amine and used to capture 200-300RUs of the sample antibodies. […] The values show the mean and standard deviation (in brackets) of three independent runs in duplicate. Each data set was independently analysed prior to the calculation of the mean and standard deviation.
Assay [12] deals with T3, GST-human NOGO-A56. Description: SPR (Biacore), GST-human NOGO-A56 amine-coupled to CM5, antibody flowed over, 37 C.
Procedure: as §2, §3
Assay [13] deals with T3, GST-human NOGO-A56. Kind of assay: SPR (Biacore), GST-human NOGO-A56 amine-coupled to CM5, antibody flowed over, 25 C. The source holds these as a separate data set.
Procedure: as §2, §3
Assay [14] deals with T3, GST-human NOGO-A56. Kind of assay: reverse format ELISA: antibody captured on anti-human IgG, GST-Nogo-A 5+6 detected with anti-GST-HRP; the x axis is the antibody concentration.
Assay [15] has as its target T3, GST-human NOGO-A56. Description: competition ELISA on coated GST-Nogo-A 5+6; competitor 2A10 pre-mixed, bound 2A10 detected with anti-mouse IgG-HRP.
Assay [16] addresses T3, GST-human NOGO-A56. Kind of assay: SPR (Biacore T100), antigen amine-coupled to CM5, antibody 0.125-8 nM; mean of six runs in duplicate (SD in brackets).
Source text: In the first approach, the recombinant Nogo-A was coupled to the surface of the chip and anti-Nogo-A antibodies passed over this surface. In the second approach, Protein A was used to capture the antibody onto the surface of the chip over which the recombinant GST-human Nogo-A56 was passed.
The antigen was bound to the CM5 chip by primary amine coupling. […] The values show the mean and standard deviation (in brackets) of six independent runs carried out in duplicate. Each completed data set was analysed independently prior to the calculation of mean and standard deviation.
For assay [17], the target named is T3, GST-human NOGO-A56. Description: direct ELISA, GST-human NOGO-A56 coated at 1.0 mcg/ml, purified antibody, OD490. The source holds these as a separate data set.
Procedure: as §4
The target of assay [18] is T4, native human Nogo-A of IMR32 neuroblastoma cells (intracellular) (human, UniProt Q9NQC3 1-1192).
T4 construct: whole, on cells; Detected inside permeabilised, fixed cells (ER-resident), not on the cell surface; also called intracellular Nogo-A; native Nogo-A
T4 sequence (looked up): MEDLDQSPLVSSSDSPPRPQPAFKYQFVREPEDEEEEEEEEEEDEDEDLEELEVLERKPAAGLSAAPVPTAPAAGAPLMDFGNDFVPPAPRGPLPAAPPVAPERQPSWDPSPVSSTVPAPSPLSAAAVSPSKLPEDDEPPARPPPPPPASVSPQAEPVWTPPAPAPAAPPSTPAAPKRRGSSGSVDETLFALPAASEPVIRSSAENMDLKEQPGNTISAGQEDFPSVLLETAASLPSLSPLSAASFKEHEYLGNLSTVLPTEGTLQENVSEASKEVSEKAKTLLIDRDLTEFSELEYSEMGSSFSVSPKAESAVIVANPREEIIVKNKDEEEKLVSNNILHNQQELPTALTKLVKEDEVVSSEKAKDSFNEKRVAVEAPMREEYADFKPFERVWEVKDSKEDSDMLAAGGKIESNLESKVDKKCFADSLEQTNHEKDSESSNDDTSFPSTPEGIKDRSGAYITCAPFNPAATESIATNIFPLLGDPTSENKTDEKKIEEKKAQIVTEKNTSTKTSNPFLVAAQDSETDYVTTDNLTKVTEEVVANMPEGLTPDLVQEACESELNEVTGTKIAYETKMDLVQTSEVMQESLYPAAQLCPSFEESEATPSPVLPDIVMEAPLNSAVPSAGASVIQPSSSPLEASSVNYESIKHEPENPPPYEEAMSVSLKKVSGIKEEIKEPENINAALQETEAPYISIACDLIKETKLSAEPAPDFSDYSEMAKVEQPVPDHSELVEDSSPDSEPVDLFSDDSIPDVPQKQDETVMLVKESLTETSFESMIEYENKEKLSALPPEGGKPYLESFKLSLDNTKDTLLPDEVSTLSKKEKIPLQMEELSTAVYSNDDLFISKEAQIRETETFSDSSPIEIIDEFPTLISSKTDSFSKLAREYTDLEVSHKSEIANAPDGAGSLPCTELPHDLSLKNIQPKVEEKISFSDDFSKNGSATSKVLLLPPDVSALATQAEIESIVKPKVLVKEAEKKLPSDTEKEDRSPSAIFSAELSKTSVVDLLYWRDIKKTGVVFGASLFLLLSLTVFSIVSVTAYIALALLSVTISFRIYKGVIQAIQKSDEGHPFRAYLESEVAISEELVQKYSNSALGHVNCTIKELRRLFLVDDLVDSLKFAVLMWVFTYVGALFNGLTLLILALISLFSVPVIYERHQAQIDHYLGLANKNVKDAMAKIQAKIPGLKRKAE
Kind of assay: flow cytometry on permeabilised, fixed IMR32 cells (intracellular Nogo-A), PE anti-human IgG, MFI.
Procedure: In the second assay, the ability of the humanised antibodies to bind native Nogo-A was assessed using a human neuroblastoma cell line—IMR32. This cell line is characterised by high intracellular/low cell surface levels of Nogo-A protein. In an attempt to increase the binding signal, the assay was set-up to detect intracellular Nogo-A (ER-resident). IMR32 cells were permeabilised and fixed prior to staining with the anti-Nogo-A humanised antibodies. Binding of the antibodies to Nogo-A was detected using an anti-human IgG-PE labelled secondary (Sigma, #P8047).

T3 sequence (chain, as listed by the source limits assumed): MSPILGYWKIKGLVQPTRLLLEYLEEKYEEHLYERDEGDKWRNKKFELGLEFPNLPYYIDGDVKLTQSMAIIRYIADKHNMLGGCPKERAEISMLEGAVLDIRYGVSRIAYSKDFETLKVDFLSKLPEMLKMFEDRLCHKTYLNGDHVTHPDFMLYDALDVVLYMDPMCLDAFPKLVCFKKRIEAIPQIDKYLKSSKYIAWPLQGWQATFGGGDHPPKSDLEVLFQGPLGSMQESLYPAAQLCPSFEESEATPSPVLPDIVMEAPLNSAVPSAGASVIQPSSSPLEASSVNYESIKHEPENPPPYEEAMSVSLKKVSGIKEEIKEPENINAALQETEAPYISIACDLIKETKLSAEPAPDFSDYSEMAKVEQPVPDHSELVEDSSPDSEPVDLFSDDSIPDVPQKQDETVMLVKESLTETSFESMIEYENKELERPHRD

B1: 2A10 (murine monoclonal antibody) (antibody, V domains shown)
VH: QVQLQQPGTELVKPGASVKLSCKASGYTFTSYWMHWVKQRPGQGLEWIGNINPSNGGTNYNEKFKSKATLTVDKSSSTAYMQLSSLTSEDSAVYYCELGQGYWGQGTTLTVSS
VL: DIVITQDELSNPVTSGESVSISCRSSKSLLYKDGKTYLNWFLQRPGQSPQLLIYLMSTRASGVSDRFSGSGSGTDFTLEISRVKAEDVGVYYCQQLVEYPLTFGAGTKLELK
notes: Mouse monoclonal; also called parental antibody 2A10; murine donor antibody 2A10
As to B1, the binding result in assay [1] and in assay [2] was “binds” throughout.

B2: H6L13 variant with VH CDR3 WQGY (antibody, human IgG1, kappa, V domains shown)
VH: QVQLVQSGAEVKKPGASVKVSCKASGYTFTSYWMHWVRQAPGQGLEWIGNINPSNGGTNYNEKFKSRATMTRDTSTSTAYMELSSLRSEDTAVYYCELWQGYWGQGTLVTVSS
VL: DIVMTQSPLSLPVTLGQPASISCRSSKSLLYKDGKTYLNWFQQRPGQSPQLLIYLMSTRASGVPDRFSGGGSGTDFTLKISRVEAEDVGVYYCQQLVEYPLTFGQGTKLEIKR
notes: Single point variant of H6FL with L13FL
On to B2, for which, in the assay with GST-human NOGO-A56 [3], the concentration giving a half-maximal response (EC50 (read off the curve)) was ~0.1 µg/mL. In the assay with GST-human NOGO-A56 [4], this molecule yielded a koff of 0.0198 s⁻¹.

B3: H26L13 (antibody, human IgG1, kappa, V domains shown)
VH: QVQLVQSGAEVKKPGASVKVSCKASGYTFTSYWMHWVRQAPGQGLEWIGNINPSNGGTNYNEKFKSRATMTRDTSTSTAYMELSSLRSEDTAVYYCELMQGYWGQGTLVTVSS
VL: DIVMTQSPLSLPVTLGQPASISCRSSKSLLYKDGKTYLNWFQQRPGQSPQLLIYLMSTRASGVPDRFSGGGSGTDFTLKISRVEAEDVGVYYCQQLVEYPLTFGQGTKLEIKR
notes: H26 FL is H6 FL with G95M (Kabat); IgG1 (L235A, G237A) / kappa; CAMPATH-1H signal (1-19) left out; also called H6(G95M)L13; H6L13 with VH CDR3 MQGY
In the case of B3, the koff with GST-human NOGO-A56 [5] was 0.00431 s⁻¹; with GST-human NOGO-A56 [7], 0.00311 s⁻¹; in the assay with GST-human NOGO-A56 [4], 0.00485 s⁻¹; in the assay with GST-human NOGO-A56 [9], 0.00288 s⁻¹. Also, the “EC50 (read off the curve)” value in the assay with GST-human NOGO-A56 [6] is ~0.03 µg/mL; in the assay with GST-human NOGO-A56 [8], ~0.1 µg/mL. The Kd was determined as 0.963 nM in the assay with GST-human NOGO-A56 [7] and 0.87 nM with GST-human NOGO-A56 [9]. The kon in the assay with GST-human NOGO-A56 [7] worked out at 3.23e+06 M⁻¹ s⁻¹; in the assay with GST-human NOGO-A56 [9] it was 3.45e+06 M⁻¹ s⁻¹.

B4: H27L16 (antibody, human IgG1, kappa, V domains shown)
VH: QVQLVQSGAEVKKPGASVKVSCKASGYTFTSYWMHWVKQRPGQGLEWIGNINPSNGGTNYNEKFKSKATLTVDKSTSTAYMELSSLRSEDTAVYYCELMQGYWGQGTLVTVSS
VL: DIVMTQSPLSNPVTLGQPVSISCRSSKSLLYKDGKTYLNWFLQRPGQSPQLLIYLMSTRASGVPDRFSGGGSGTDFTLKISRVEAEDVGVYYCQQLVEYPLTFGQGTKLEIKR
notes: IgG1 (L235A, G237A) / kappa; CAMPATH-1H signal (1-19) left out; also called H27FL L16FL
In the case of B4, the “EC50 (read off the curve)” value in the assay with GST-human NOGO-A56 [10] was ~0.04 µg/mL; in the assay with GST-human NOGO-A56 [6], ~0.06 µg/mL; with GST-human NOGO-A56 [14], ~0.1 µg/mL; in the assay with GST-human NOGO-A56 [17], ~0.06 µg/mL. Further, the Kd worked out at 0.31 nM with GST-human NOGO-A56 [11]; 0.426 nM in the assay with GST-human NOGO-A56 [12]; 0.38 nM with GST-human NOGO-A56 [13]; 0.194 nM in the assay with GST-human NOGO-A56 [7]; 0.56 nM with GST-human NOGO-A56 [16]. For the same molecule, the koff with GST-human NOGO-A56 [12] amounted to 0.00306 s⁻¹; with GST-human NOGO-A56 [13], 0.0015 s⁻¹; with GST-human NOGO-A56 [7], 0.00121 s⁻¹. The kon with GST-human NOGO-A56 [12] turned out to be 7.18e+06 M⁻¹ s⁻¹; in the assay with GST-human NOGO-A56 [13] it was 3.94e+06 M⁻¹ s⁻¹; with GST-human NOGO-A56 [7], 6.24e+06 M⁻¹ s⁻¹. For the same molecule, the “IC50 (read off the curve)” value in the assay with GST-human NOGO-A56 [15] is ~5 µg/mL. Moreover, in [18], the binding result was “binds”.
